This is an account of results in patent US20140093526A1 (RESEARCH FOUNDATION FOR MICROBIAL DISEASES OF OSAKA …, published 2014).

The target in assay [1] is T1, HHV-6B glycoprotein Q1 (gQ1), full length, wild type (human herpesvirus 6B (HHV-6B), UniProt Q9QJ11 25-488).
T1 construct: Viral envelope glycoprotein; Tested in lysates of HHV-6B (HST strain)-infected cells (immunoprecipitation) and expressed from plasmid in 293T cells (IFA), alone or with gQ2; also called HHV-6B gQ1; BgQ1
Briefly: co-expression in cells.

Assay [2] has as its target T2, HHV-6B gQ1 point mutant C487W E488Q (human herpesvirus 6B (HHV-6B), UniProt Q9QJ11 25-486).
T2 construct: Expressed in 293T cells; W is used here
Briefly: IFA with KH-1 on 293T cells expressing the point mutant.

Assay [3] deals with T3, HHV-6B gQ1 point mutant E488Q G489V (human herpesvirus 6B (HHV-6B), UniProt Q9QJ11 25-487).
T3 construct: Expressed in 293T cells
Described as above.

The target of assay [4] is T4, HHV-6B gQ1 carboxy-terminal deletion mutant, position 1 to position 483 (human herpesvirus 6B (HHV-6B), UniProt Q9QJ11 25-483).
T4 construct: Expressed in 293T cells together with gQ2; also called gQ1 1-483
T4 chain: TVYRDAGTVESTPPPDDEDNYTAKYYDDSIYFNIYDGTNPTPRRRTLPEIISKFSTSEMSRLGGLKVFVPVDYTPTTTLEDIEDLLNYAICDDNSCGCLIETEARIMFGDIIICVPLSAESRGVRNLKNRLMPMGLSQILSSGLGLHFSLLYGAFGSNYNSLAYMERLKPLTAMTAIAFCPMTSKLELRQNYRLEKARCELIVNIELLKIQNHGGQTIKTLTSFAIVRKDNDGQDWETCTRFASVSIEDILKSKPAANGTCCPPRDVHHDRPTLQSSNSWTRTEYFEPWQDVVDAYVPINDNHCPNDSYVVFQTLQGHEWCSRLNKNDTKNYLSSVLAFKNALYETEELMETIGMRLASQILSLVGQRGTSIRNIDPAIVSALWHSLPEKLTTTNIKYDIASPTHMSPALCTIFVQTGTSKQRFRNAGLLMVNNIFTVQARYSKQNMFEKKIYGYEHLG
In words: IFA on 293T cells co-transfected with the gQ1 mutant and gQ2.

Assay [5] deals with T5, HHV-6B gQ1 carboxy-terminal deletion mutant, position 1 to position 466 (human herpesvirus 6B (HHV-6B), UniProt Q9QJ11 25-466).
T5 construct: Expressed in 293T cells together with gQ2; also called gQ1 1-466
T5 chain: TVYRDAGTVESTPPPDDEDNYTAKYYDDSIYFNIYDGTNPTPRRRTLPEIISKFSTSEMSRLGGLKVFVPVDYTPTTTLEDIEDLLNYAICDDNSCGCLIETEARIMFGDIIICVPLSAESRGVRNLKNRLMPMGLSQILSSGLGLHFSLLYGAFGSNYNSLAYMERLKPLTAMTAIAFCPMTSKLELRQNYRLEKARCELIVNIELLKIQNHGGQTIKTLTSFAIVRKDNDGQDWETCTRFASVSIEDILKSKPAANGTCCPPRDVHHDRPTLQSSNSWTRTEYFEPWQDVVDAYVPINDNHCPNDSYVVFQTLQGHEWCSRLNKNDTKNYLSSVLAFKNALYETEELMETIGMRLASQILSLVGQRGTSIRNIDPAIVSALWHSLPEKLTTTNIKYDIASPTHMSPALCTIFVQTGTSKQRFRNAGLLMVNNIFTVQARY
The assay is described as above.

The target in assay [6] is T6, HHV-6B gQ1 carboxy-terminal deletion mutant, position 1 to position 451 (human herpesvirus 6B (HHV-6B), UniProt Q9QJ11 25-451).
T6 construct: Expressed in 293T cells together with gQ2; also called gQ1 1-451
T6 chain: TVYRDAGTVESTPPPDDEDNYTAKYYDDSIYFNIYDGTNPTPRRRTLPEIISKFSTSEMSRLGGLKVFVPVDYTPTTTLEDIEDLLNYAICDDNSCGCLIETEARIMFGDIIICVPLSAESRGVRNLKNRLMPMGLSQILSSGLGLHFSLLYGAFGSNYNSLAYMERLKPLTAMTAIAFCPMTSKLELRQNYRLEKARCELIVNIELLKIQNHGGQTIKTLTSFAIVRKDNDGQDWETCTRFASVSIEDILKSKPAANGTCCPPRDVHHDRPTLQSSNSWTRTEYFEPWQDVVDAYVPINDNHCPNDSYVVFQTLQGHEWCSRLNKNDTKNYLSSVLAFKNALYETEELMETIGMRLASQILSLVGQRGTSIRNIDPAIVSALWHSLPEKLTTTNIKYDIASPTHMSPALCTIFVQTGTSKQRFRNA
The description is as above.

B1: HHV-6B glycoprotein Q2 (gQ2) (other)
chain: LPFFSTLPKITSCCDHYVVLNSLSSVSSSTPTCLDGEILFQNAGQKFCRPFTDNRTIVYTMQDQVQRPWSVTWMDFNLVISDYGRAVIENLTESAMSAHKNGPRYLQMETFISDLFRYECHRDNRYVLEKKLQMFYPTTHMNELLFYPSDPTLPSPYGNGHY
notes: Co-expressed with gQ1 from plasmid in cells (293T); also called HHV-6B gQ2; BgQ2
As for B1, the binding result in assay [1] is “binds”.

B2: monoclonal antibody KH-1 (anti-HHV-6B gQ1 neutralizing antibody) (antibody, V domains shown)
VH: EVQLQQSGPELEKPGASVKISCKASGYSFTGYNMNWVKQSNGKRLEWIGNIDPYYGGASYNQKFKGKATLTVDKSSTTAYMQLQSLTSEDSAVYYCARGGYGRYFDVWGAGTAVTVSS
VL: QIVLTQSPAIMSASPGEKVTMTCSASSSISYMHWYQQKPGTSPKRWIYDTSKLASGVPARFSGSGSGTSYSLTISNMESEDAATYYCHQRSRYHTFGGGTRLEIKR
notes: Mouse (BALB/c) hybridoma antibody; also called MAb KH-1; anti-gQ1 monoclonal antibody KH-1
For the molecule B2, the binding result in assay [2], in assay [3], in assay [4], in assay [5] and in assay [6] was “no binding” throughout.
